# Assay results published in US20050158769.
# How the values were obtained:
# [1] = tested on: T1, MseI restriction endonuclease (R.MseI) (Micrococcus sp. NEB#446); assay: cleavage_in_vitro; conditions: NEBuffer 2 (50 mM NaCl, 10 mM MgCl2, 10 mM Tris-HCl, 1 mM DTT, pH 7.9) + BSA, 37 C; 1 unit digests 1 ug lambda DNA in 1 h
# T1 sequence: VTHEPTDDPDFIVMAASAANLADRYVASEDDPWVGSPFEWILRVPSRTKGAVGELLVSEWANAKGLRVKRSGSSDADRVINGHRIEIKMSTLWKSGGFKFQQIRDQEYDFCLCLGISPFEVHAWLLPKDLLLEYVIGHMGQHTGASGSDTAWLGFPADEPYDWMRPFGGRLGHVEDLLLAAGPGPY
# [2] = tested on: T2, MseI restriction endonuclease (native) (Micrococcus sp. NEB#446); assay: cleavage_in_vitro; conditions: native enzyme; substrate inferred from the unit assay
# T2 sequence: T1 sequence
substance,measurement,setting,value
lambda DNA,activity (units total purified),[1],2.6e+07
same,activity (units total purified (approx.)),[2],10000
